# Ends that are not written are not given here. * marks the point of attachment. Biotin = O=C1N[C@H]2[C@H](CS[C@H]2CCCCC(=O)*)N1
# B1: 30-mer inhibitor peptide (30-IP), QTVTWPDMELPLPRNITEGQARGSVILTVK-Biotin (peptide)
# peptide: QTVTWPDMELPLPRNITEGQARGSVILTVK(Biotin)
# modifications: not fully specified (N-terminus, C-terminus); printed as QTVTWPDMELPLPRNITEGQARGSVILTVK-Biotin
# Biological target: aggrecan degrading metallo protease (ADMP)
# Test: cell-based or functional assay
binder,measurement,value
B1,"IC50 for the inhibition of ADMP activity (microplate assay, cleavage of plate-bound 41-PS detected with BC-3 antibody)",11 µM

# Reference: patent US7223834 (Bristol-Myers Squibb, dated 2007)
